This series is described as follows: yeast display, Sf9 membrane polyspecificity reagent, FACS + sequencing; frameworks hold sequencing errors. A digest of the protocol: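 A synthetic nanobody library was expressed on Saccharomyces cerevisiae BJ5465 by galactose induction for 36–48 hours. The library was stained for 1 hour at 4 °C with 10% biotinylated, detergent-solubilized Sf9 membrane reagent and enriched with streptavidin microbeads before FACS. Low and high (top ~1%) gates were set on anti-HA fluorescence for expression and streptavidin fluorescence for reagent binding, and each polyreactivity label reflects the gate of origin.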
Take “QVQLVESGGGLVQAGGSLRLSCAASGRIFYGYAMGWYSQAPGKEREVVATITGIGGSTYADSVKGRFTISRDHAKNTVYLQMNSLKPEDTAVYYCNAERGVYWGRYPYKYDYWGQGTQVTVSS”: the “polyreactivity (PSR sort gate)” value is reported as “low polyreactivity”. Take “QVQLVESGGGLVQAGATIRLSCAASVRTFESNALGWYRQEPGKERELVAGITSGGITNYADSVKGRFTISRDNAKNNVYLQMNSLKPEDTAVYYCEFYYWGQGTQVTVSS”: the “polyreactivity (PSR sort gate)” value is recorded as “low polyreactivity”.

On to “QVQLVESGGGLVQAGGSLRLSCAASGFTFGHYALGWYRQATGKERELVAAITRSGGNTYYADSVKGRFTISRYNAKNTVYLQMNSLKPEDTAVYYCAARLGWVYYSRSRYGYWGQGTQVTVSS”, for which the “polyreactivity (PSR sort gate)” value was “high polyreactivity”.

Take “QVQLVESGGGLVQAGGSLRLSCAASGSIFRRNAMGWYRQAPGKERELVAAISSSGNTYYADSVKGRFTISRDNAKNTVYLQMNSLKPEDTAVYYCAADGRNYYGSYDYWGQGTQVTVSS”: the “polyreactivity (PSR sort gate)” value is on record as “low polyreactivity”.

As for “QVQLVESGGGLVQAGGSLRLSCAASGSIFGPYSMGWYRQAPGKERELVAAISWRGGTTRYADSVKGRFTISRDNAKNTVYLQMNSLKPEDTAVYYCNRTVYSKTQYDYDYWGQGTQVTVSS”, the “polyreactivity (PSR sort gate)” value is reported as “high polyreactivity”. Under “QVQLVESGGGLVQAGGSLRLSCAASGFYAMGWYIQAPGKERELVAAIRYRGGSTYYADSVKGRFTFSRDNAKNTVDLQMNSLKPEDTAVYYCAASTGPDRQFDSWGQGTQVTVSS” stands “low polyreactivity”. As to “QVQLVESGGGLVKAGGPLRLSCAASGSIFYYNPMGWYRQAPGTERELVAAITSGDSTNYADSVKGRFTISRDNAKNSVYLQLNSLKPEDTAVYYCAADYLAALTYYRTYDYWGEGTQVTVSS”, the “polyreactivity (PSR sort gate)” value is “low polyreactivity”. Turning to “QVQLVESGGVLVQAGGSLRLSCAASGIIFVYNPMGWYRPAPGKERELVAGISWNGVSTYYADSVKWRFTISRDYAKYTVYLQMNSLKPEDTAVYYCAASLWVYVGQARYLWYDYWGQGTQVTVSS”, the “polyreactivity (PSR sort gate)” value was “low polyreactivity”. Under “QVQLVESGGGLVQAGCSLRLSCAASGRIITRYPMGWYRQAPGKERELVAAISYGGGGTYYADSVKGRFTISRDNAKNTVYLQMNSLKPDDTAVYYCATDDPLSQINEQGMDYWGQGTQVTVSS” stands “low polyreactivity”; under “QVQLVESRGGLVQAGGSLRLSCAASGRTIINYAMGCYRQAPRKERELVAAITTGGRTNYADSVKGRFTISRDNAQNTVYLQMNSMKPEDTAVYYCNAVRYYRYYYWGQGTQVTVSS”, “low polyreactivity”; under “QVQLVESGGGLVQAGGSLRLSCAASGLIFVWYDMGWYRQAPGKERELVATISSDGITNYADSVKGLFTISRDNAKNTVYLQMNSLKPEDTAVSYCNAGPDDYVGYWGKYDYWGQGTQVTVSS”, “low polyreactivity”. The value for “QVQLVESGGGLVQAGASLRLICAASGSTFQGNAIGWNRQAPGKERELVAAISRSGGSTYADSVKGRFTISRDNAKNTVYLQLNSLKPEDTAVYYCAAYSGVGYLWFDYWGQGTQVTVSS” was “low polyreactivity”. Under “QVHLVESGGGLVQAGGSLRLSCAASGNIFGVYAMGWYRQAPGKERELVAAISDSTYYADSVKGRFTISRDNAKNTVYLQMTSLKPEDTAVYYCAAAVLGRYSAGDGYWGQGPQVTVSS” stands “low polyreactivity”; under “QVQLVESGGGLVQAGGSLRLSCAASGSIFGWYAMRSYRQAPGKATELVASISGSGGSTYYADSVKGRFTISRDNAKNTVYLQMNSLKPEDTAVYYCAADYALSSLPFDYWGQGTQVTVSS”, “high polyreactivity”; under “QVQLVESGGGLVQAGCSLRLSCAASGSTFRRYAMGWYRQAPGKERELVAAISGGGTSTYYADSVEGRFTISRDNAKNTVDLQMNSLKPEDTAVYYCNAKTYYARYDYWGQGTQVSVSS”, “high polyreactivity”. Regarding “RVQLVESGGGLVQAGGSLRLSCAASGGTFPVYAMGWYRQAPGKEWELVAAISYSGVTTYYADSVKGRFTISRDNAKNTVYLQMNSLKPEDTAVYYCNADWRRWYIFSYDYWGQGTQVTVSS”, the “polyreactivity (PSR sort gate)” value is “low polyreactivity”. Under “QVQLVESGGGLVQAGGSLRLSCAASGSTFVINAMGWYRQAPGKERELVADIDYRGGSTNYADSVKGRFTISRDNAKNTVYLLMNSLKPEDTAVYYCNKRYVIRRRGYDYWGQGTQVTVSS” stands “low polyreactivity”; under “QVQLVESGGGLVQAGGSLRLSCAPSGRTFWYNAMGWYRQAPGKERELVATITSGGRTSYADSVKGRFTISRDNAKNTVYLQMNSLKPEDTAVYYCAATTGWYGARYGYWGQGTQVTVSS”, “high polyreactivity”; under “QVQLVESGGGLVQAGGSLRLSCAASGRIFVGYAMGWYIQAPGKERELVAAINRSGSSTYYADSVKGRFTISRDNAKNTVYLQMNRLKPEDTAVYYCNARSGNRYGPRYDYWGQGTQVTVSS”, “high polyreactivity”.

“QVQLVESGGVLVQAGGSLRISSAASGRIFKVYAMGWYRQAPGKEREFVAVITGGGSTNYADSVKGRFTISRDNAKNTVYLQMNSLKPEDTGVYYCATEGYGHGGETDGGVYSDLGYWGQGTQVTVSS”: the “polyreactivity (PSR sort gate)” value is recorded as “low polyreactivity”. Under “QVQLVESGGGLVQAGGSLRLSCAASGRIFGINVMGWYRQAPGKERELVARITGRGGRTYYADSVKGRFTISRDNAKNTVYLQMNSLKPEDTAVYYCAADARYEAYDYWGQGTQVTVSS” stands “high polyreactivity”; under “QVQLVESGGGLVQARGSHRLSCAASGSIFVINAMGWYRQAPGKERELVAAISYSGTGTYFADSVKGRFTISRDNAKNTVYLQMNSLKPEDTAVYYCAADYYYRYRIYDYWGQGTQVTVSS”, “low polyreactivity”.

With “QVQLVESGGGLVQAGGSLRLSCAASGFTFYGYAMGWYRQAPGKERELVAAISSSGGRTYYADSVKGRFTISRDNAKNTVYLQMNSLKPEDTAVYYCAADYTSRDYYYWGQGTHVTVSS”, the “polyreactivity (PSR sort gate)” value was “high polyreactivity”. The value for “QVQQQESGGGLVQAGGSLRLSCAASGSIFDGFNMGWYRQAPGKEREFVAAISYGASTYYADIVKGRFTDSRDNAKYSVYLQMIRLKPEDTAVYYCAVYDELYHVLVYWGRGTQVTVSS” was “low polyreactivity”; that for “QVQLVESGGGLVQAGGSLRLSCAASGSTVYYNAMGWYRQAPGKERELVADITTSGDSTYYADSVKGRFTISRDNAKNTVYFQMNSLKPEDTAVYYCNAGVVGDYPYWGLMDYWGQGTQVTVSS” was “high polyreactivity”. Under “QVQLVESGGGLVQAGGSLRISCAASGRIFFAYAMGWYRQAPGKERELVASITWSGSSTTYADSVKGRFTISRDNAKNTVYLQMNSLKPDDTAVYFCGSDPYFWGYHFRRYGSRGQGTQVTVSS” stands “low polyreactivity”. Turning to “QDQLVESGGGLVQAGGSHRLSCAASGRTFYLYAMGWYRHAPGKERELVAGISYRGSRTYYADSVKVRFTISRDYEKNTVYLQMNSLKPEDTAVYYCATPAGQAAYDYWGQGTQVTVSS”, the “polyreactivity (PSR sort gate)” value was “high polyreactivity”. On to “QVQLVESGGGLVQAGGSLRLSCAASGSTFTVNCMGWYRQAPGKERELVASITWSGGSTYYADSVKGRFTISRDNAKNTVYFQMNSLKPEDTAVYYCAADEKLYITGYDYWGQGTQVTVSS”, for which the “polyreactivity (PSR sort gate)” value is reported as “low polyreactivity”. Under “QVQLVESGGGLVQAGGSLRLSCAASGLIFYDNMGWSRQAPGKERELVAAISSSGGSTSYADSVKGRFTISRDNAKNTVYLQMNSLKPADTAVYYCAADSYPAYLGFVGFDYWGQGTQVTVSS” stands “low polyreactivity”; under “QVQLVESGGGLVQAGGSLRITCAASASIYYRYAMGWNRQAPGKERELVAAITYSGGSTYYADSVKGRFTISRDNAKNPVYLQMNSLKPEDTAVYYCAKDYPPPISDYSRYYGYGYWGQGTQVTVSS”, “low polyreactivity”.

The values above are taken from the nanobody polyreactivity screen of Harvey et al. (2022).
